{"source": "patent US20170226560", "target": "peptide substrate shown in FIG. 9a (Protease K substrate)"}
{"protein": "Protease K (protein) AAQTNAPWGLARISSTSPGTSTYYYDESAGQGSCVYVIDTGIEASHPEFEGRAQMVKTYYYSSRDGNGHGTHCAGTVGSRTYGVAKKTQLFGVKVLDDNGSGQYSTIIAGMDFVASDKNNRNCPKGVVASLSLGGGYSSSVNSAAARLQSSGVMVAVAAGNNNADARNYSPASEPSVCTVGASDRYDRRSSFSNYGSVLDIFGPGTSILSTWIGGSTRSISGTSMATPHVAGLAAYLMTLGKTTAASACRYIADTANKGDLSNIPFGTVNLLAYNNYQA", "values": [{"measurement": "ratio of the absorption at 700 nm/520 nm (750 nM peptide, Protease K up to 300 pM, 60 min, 20 C)", "result": "With increasing amounts of protease K the spectrum shifts back toward the native spectrum seen in the gold nanoparticles alone and the ratio falls to nearly 0"}]}
